Test results taken from the DeepSol protein solubility set.

Experiment: soluble on expression in E. coli; label from the status in PepcDB or PDB records

Sequence	soluble on expression in E. coli
MKQQDNPLIEQFLDALWLERNLAENTLASYRLDLHALVGWLTHHNSDLLRASPQDLQSFLAERIEGGYKATSSARLLSAMRRLFQYLYREKLREDDPTALLSSPKLPQRLPKDLSEAQVDALLNSPNVDIPLELRDKAMLEVLYATGLRVSELVGLTISDVSLRQGVVRVIGKGNKERLVPLGEEAVYWIENYMEHGRPWLVNGASLDVLFPSNRSQQMTRQTFWHRIKHYAILAGIDSERLSPHVLRHAFATHLLNHGADLRVVQMLLGHSDLSTTQIYTHVATERLRQLHQQHHPRA	not soluble
MGSDKIHHHHHHVSEAIVFTSGKGGVGKTTVISNIGVELSQLDKKVIMLDTDMGLRNLDLVMGIEDKVNYNILDILNRSCRIRQAIIRNKKYPNLYVIPAAPSMDTLCSYEARFKILIEELKASFDYCLIDSPAGIDSGFWFSVSPADRAIVVTTPHVSAIHDARRCISLLDSAHLDDISVIVNAYDKHMVRRHQMISDNDITALLSTRIIGTIPYDKSVIICQNRGIPVREAKSRLSPVFARISGQIIHSSDDMRGAAV	not soluble
MAHHHHHHMSDAQTVQTLVLWNGEWPYVKRGVSEVRAVAAGVIASANALVDVPAYLARARKYTAAADDFVTAQSARASSTLESHQWVVPAAGIALASVYVVVRSAPWGGMKMMRNGLVTAGALTAFMYPREIVHQIDRAMPFQAPASISEQKNES	not soluble
GVRNLAQGPRGCEHYDRACLLKAPCCDKLYTCRLCHDTNEDHQLDRFKVKEVQCINCEKLQHAQQTCEDCSTLFGEYYCSICHLFDKDKRQYHCESCGICRIGPKEDFFHCLKCNLCLTTNLRGKHKCIE	soluble
MSVDVKSDFSENESSSTPSPTTVPADVTWPHYPMMPFMQPHPLREKMLQPTFDPQIYGRWSQMGDTGFYGHPDLYPFGLPQLAANGQIPAVEAVDVKPPLSNGSSSSDSGMYPSPSDMMTPFPSTSSGAASSSELSAAAAAAANYQMRAATCYQQSVWPFMDYQQFQGFSWKMPLGNNHGKDRRSSSDGKTLPTGPGTNNVRVRTADKYRMVYSDYQRLELEKEFHTSPFITSDRKSQLSTMLSLTERQIKIWFQNRRAKDRRDKQKIRL	not soluble
MGSSHHHHHHHSSGRENLYFQGHMEGVRWAFSCGTWLPSRAEWLLAVRSIQPEEKERIGQFVFARDAKAAMAGRLMIRKLVAEKLNIPWNHIRLQRTAKGKPVLAKDSSNPYPNFNFNISHQGDYAVLAAEPELQVGIDIMKTSFPGRGSIPEFFHIMKRKFTNKEWETIRSFKDEWTQLDMFYRNWALKESFIKAIGVGLGFELQRLEFDLSPLNLDIGQVYKETRLFLDGEEEKEWAFEESKIDEHHFVAVALRKPDGSRHQDVPSQDDSKPTQRQFTILNFNDLMSSAVPMTPEDPSFWDCFCFTEEIPIRNGTKSLESG	soluble
MNFLEASWEEREVTAYKAILGDTGLGIFPLSHELFKRMSASGINPRWLTHGVFKSPPNGNRSTWAYITSGMSNPWETNEPEEHSGLGVEFIIETEKEETWAVEVLQMLMAYNLLLAAGQMGDFPLLGDGDRVPLALSDAIRTMMFTQPVSFPHCFSLKSGRVDLLQVVGITPAELQVAKQTSSDKIRTQLISKLGSLVTSKERESVVLEHHHHHH	not soluble
SLTQKEQEEKLYMMLPVFNRVFGNAPPNTMTEKFSDLLQFTTQVSRLMVTEIRRRASNKSTEAASRAIVQFLEINQSEEASRGWMLLTTINLLASSGQKTVDCMTTMSVPSTLVKCLYLFFDLPHVPEAGGGAQNELPLAERRGLLQKAFVQILVKLCSFVSPAEELAQKDDLQLLFSAITSWCPPYNLPWRKSAGEVLMTISRHGLSVNVVKYIHEKECLSTCVQNMQQSDDLSPLEIVEMFAGLSCFLKDSSDVSQTLLDDFRIWQGYNFLCDLLLRLEQGKEAECRDALKDLVSLVTSLTTYGVSELKPAGVTTGAPFLLPGFAVPQPAGKGHSVRNIQAFAVLQNAFLKAKTNFLAQIILDAITNIYMADNANYFILESQHTLSQFAEKISKLPEVQNKYFEMLEFVVFSLNYIPCKELISVSILLKSSSSYHCSIIAMKTLLKFTRHDYIFKDVFREVGLLEVMVNLLHKYAALLKDPAQALN	soluble
MALRLAVSSALRPALNSQVRNASSAVSVKDVLASAPQAEVTTLKNGFRVVTEDNGSATATVGVWIETGSRFENEKNNGVAHFLERLIHKGTGKRASAALESELNAIGAKLNSFTERDQTAVFVQAGAQDVEKVVDILADVLRNSKLEASTIDTERVNLLKELEASDDYHQLVLFDMLHAAGFQGTPLALSVLGTSESIPNISAQQLKEWQEDHYRPVRMVLSAVGGGVSNVSSLADKYFGDLSNEYPRKVPQVDGTRFTGSEYRYRNDNVPHMYAAFAVEGVGYAHKDALALQIANQFIGQWDVTHATSRTAASRLVQKIGHDHGVHNLQHFNINYKDTGLFGIYFVADAHDLNDTSGIMKSVAHEWKHLASAATEEEVAMAKNQFRTNLYQNLETNTQKAGFNAKELLYTGNLRQLSELEAQIQKVDAGAVREAISRHVYDRDLAAVGVGRTEAFPNYALTRAGMSWWRM	not soluble
MLKYSNHMAFKDLREYIEFMKKKGKLIEVDDEVSVDLEIAEITRKATYAHLPPLLFKRVKNYENWKIVSNIFYSIESLYEIFGTNKLESISEGFLSNLSNMPITFFDKIKSLREILGLGKVMPKAKSPSFKEEKNLDLTKIPAIKTWPKDAGRYLTFSITITKDPETDVHNLSVYRVQILNEKEAIIHWQAFKRGALTAKKYLEKGISKIPIAVVTGVDPAIAFTAASPVPHGIDKYMFAGILRGEGIDVAELDNQLLVPSHSEVVLTGYVDLNDMRLEGPFGDHMGYYTPADYYPVFKLERVYIREDPIFHVTSVGKPPLEDAWIGKAVERIFLPFAKMLVPELIDMNLPEYGLFTGIGIFSIKKYYPGQAKRVMMALWGTGQLSLLKIIIVVDQDIDVHDINQVIYAIAANVDPKRDVWVIENALTDSLDPSVPFPPLGSKLGIDATRKFKEEMGKEWPEEVRSDEVVAKKADQILNKIIKRYQTSLEHHHHHH	not soluble
QLDGLDVYVAGKADVNFLFDRYISTKTELRSTTYSNYLYTWNHFIRDTFGKKKVRDVKYSDVLFFYTDLINNQGLQINTLETINTVLRPTFQLAVRDDIIRKNPVDGAYCEVKKRNGGARKTRRALTVDQQRKFMEYVAKNPFFYHWYPFFVFLLGTGCRIGEAIGIRWDDIDLENRIIDINHSLTYYQRADDSYKCEFRVSLPKTEAGNRRIPMMQQVYDVLQEEYERQKQEGFCVENVDGMTNFVFTNRFGMPHNPAAVNRAIKR	not soluble
MTPLKRYQKDIAEHGFQRDEAQHQAVVALDKLYHDIVEFQSAPIPQLSKWQKLMGKKVEMPQPPKGLYFWGGVGRGKTYLMDAFFDALPTDRKMRVHFHRFMYRVHDELKRLGEVENPLSKVADLFKQEADIVCFDEFFVSDITDAMILATLLQEMFKRQMVLVATSNIEPQNLYRNGLQRARFLPAIDMILARCHVLNVDSGVDYRLRTLEQAEIYHYPLDEQASINLNTYYQQLTAERKSVAHKIDINHRQISVIEASDGVLHASFEQLCQTARSQNDYIELSRIYHTVLLADVRQMNRKIDDAARRFIALVDEFYERNVKLIISAEVEMDALYSEGQLEFEFKRCVSRLTEMQSHEYLAREHLALEHHHHHH	soluble
GHMGQSPDAPIADTPGEQQEINLYSSRHYNTDNELYAKFTAETGIKVNLIEGKADELLERIKSEGANSPADVLLTVDLARLWRAEEDGIFQPVQSEILETNVPEYLRSPDGMWFGFTKRARVIMYNKGKVKPEELSTYEELADPKWKGRVIIRSSSNEYNQSLVASLVVADGEESTLAWAKGFVSNFAREPQGNDTAQIEAVSSGEADLTLANTYYMGRLLESEDPAQKAIAENVGVFFPNQEGRGTHVNVSGVGVVKTAPNREGAVKFIEFLVSEPAQAFLAQNNYEYPVLAGVPLNKSVASFGEFKSDTTSLDKLGPALAPATKIMNEAGWK	soluble
MIPHTDIVHNLAEKVVVVRLEKPVTFHNMIAPGKEVEVSLLFFIINNSSSSQTNILAQLMDFFTGNGHLEDLSKISEPEALYAYIAEATA	not soluble
MKSFIKIHKQDNVLLALRYIQKGERLHAYGVSIEVKDDIKRGHKIALQSIKENDSIVKYGFPIGHASQDISIGEHIHVHNTKTNLSDIQLYSYTPRFDENPYSNENRTFKGFRRENGDAGVRNELWIVPTVGCVNGIAEKMLQRFVRETGDIAPFDNVLVLKHQYGCSQLGDDHENTKQILLNAIRHPNAGGVLVLGLGCENNELARMKEALQDVNLKRVKFLESQSVTDEMEAGVALLKEIHEAAKGDKREDIPLSELKIGLKCGGSDGFSGITANPLLGRFSDYLIAQGGSTVLTEVPEMFGAETILMQRAANEEVFHKIVDLINDFKQYFIKHDQPVYENPSPGNKAGGISTLEDKSLGCTQKAGISPVTDVLKYGEVLKTKGLTLLSAPGNDLIASSALAAAGCQIVLFTTGRGTPFGTFVPTVKVATNTELYEAKPHWIDFNAGLLAEDDVHEEYVLREFIHYMIEVASGQLVNHEKNDFKELAIFKSGVTL	not soluble
MTLYIGMNNTSGKAITDIDHLRQSVRDILLTPQGSRIARREYGSLLSALIDQPQNPALRLQVMSAVYVALSRWEPRLTLDSITINSHFDGSMVVELAGRRNNGVPVSLSVSTGAENGSD	not soluble
MSLSHFDSQAPTWDENPKRSLMINAIAEALRSHLPLREDFRVMDYGCGTGELSLAILPWVGYVEGIDTSKGMIDRFSQKIQERNLPNIKAKFMRAGEALEGEFDLVVCNMVLHHIPDPLLYIRQFESSIRPGGHLAIIDLDKEDGSFHPQGTPGVFHQGFSYEEIRAWLDYCYLEERLHHPSLHLIQKNEREYPLTLTLAQKPHEGHHHHHH	soluble
MELPPKVKNILLLDSEGKRVAVKYYSDDWPTNSAQEAFEKSVFTKTQKTNARTEVEVTALENNIVVYKFVQDLHFFVTGGEEENELILASVLEGLFDAVTLLLRSNVDKREALDNLDLIFLSFDEIIDGGIVLETDANVIAGKAGINSTDPNAPLSEQTISQALATAREHLTRSLMK	soluble
MADDFKTAQMNNPHLRNYVEKFKKTYMKVPEFVPSLSRDFKEIKYPNIIYPIGDPIFIHLYGTPNLKTRYIAIEPKLNGSEERKKYFDILDKILEYAPYSDIPENDEEFGKVVTKLFDMVAK	not soluble
DDDDEEEDDFVYFNFNKEKEEKNKNSIHPNDFQIYNSLKYKYHPEYQYLNIIYDIMMNGNKQSDRTGVGVLSKFGYIMKFDLSQYFPLLTTKKLFLRGIIEELLWFIRGETNGNTLLNKNVRIWEANGTREFLDNRKLFHREVNDLGPIYGFQWRHFGAEYTNMYDNYENKGVDQLKNIINLIKNDPTSRRILLCAWNVKDLDQMALPPCHILCQFYVFDGKLSCIMYQRSCDLGLGVPFNIASYSIFTHMIAQVCNLQPAQFIHVLGNAHVYNNHIDSLKIQLNRIPYPFPTLKLNPDIKNIEDFTISDFTIQNYVHHEKISMDMAA	soluble
SDSSAVITQISKEEARGPLRGKGDQKSAASQKPRSRGILHSLFCCVCRDDGEALPAHSGAPLLVEENGAIPKQTPVQYLLPEAKAQDSDKICVVIDLDETLVHSSFKPVNNADFIIPVEIDGVVHQVYVLKRPHVDEFLQRMGELFECVLFTASLAKYADPVADLLDKWGAFRARLFRESCVFHRGNYVKDLSRLGRDLRRVLILDNSPASYVFHPDNAVPVASWFDNMSDTELHDLLPFFEQLSRVDDVYSVLRQPRPGS	soluble
